Patent publication EP4725969A1 (Latticon (Suzhou) Biopharmaceuticals Co., Ltd., dated 2024)
Numbering of substitutions follows the chain as printed.

B1: Hu2117HK-Mu09 (Fc fusion)
scFv: EVQLVESGGGLVQPGGSLRLSCAASGFTYSSYGMSWVRQAPGKGLEWVASISGGGSYTKYGDSVKGRFTISRDNSKNTLYLQMNSLRAEDTAVYYCARDYAGFFDVWGQGTLVTVSSGGGGSGGGGSGGGGSDIQMTQSPSSLSASVGDRVTITCRSSQSLVHSNGNTYLHWYQQKPGKAPKLLIYKVSNRFSGVPSRFSGSGSGTDFTLTISSLQPEDFATYFCSQSTHVPYTFGQGTKVEIK
notes: scFv-hIgG1 Fc; not shown: human IgG1 Fc
B2: Hu2117HK-Mu10 (Fc fusion)
scFv: B1 scFv with G61V
notes: as for B1
B3: Hu2117HK-Mu11 (Fc fusion)
scFv: B1 scFv with G61P, F192D
notes: as for B1
B4: Hu2117HK-Mu12 (Fc fusion)
scFv: B1 scFv with G61P, F192P
notes: as for B1
B5: Hu2117HK-Mu13 (Fc fusion)
scFv: B1 scFv with G61P, F224Y
notes: scFv-hIgG1 Fc; also called Hu2117HK-Mul3; not shown: human IgG1 Fc
B6: Hu2117HK-Mu14 (Fc fusion)
scFv: B1 scFv with G61P, D62G
notes: as for B1
B7: Hu2117HK-Mu16 (Fc fusion, name in Kabat numbering)
scFv: B1 scFv with G61P, N165G
notes: as for B1
B8: Hu2117HK-Mu17 (Fc fusion, name in Kabat numbering)
scFv: B1 scFv with G61P, N165I
notes: as for B1
B9: Hu2117HK-Mu18 (Fc fusion, name in Kabat numbering)
scFv: B1 scFv with G61P, N165L
notes: as for B1
B10: Hu2117HK-Mu19 (Fc fusion, name in Kabat numbering)
scFv: B1 scFv with G61P, N165Q
notes: as for B1
B11: Hu2117HK-Mu20 (Fc fusion, name in Kabat numbering)
scFv: B1 scFv with G61P, N165S
notes: as for B1
B12: Hu2117HK-Mu21 (Fc fusion, name in Kabat numbering)
scFv: B1 scFv with G61P, N165T
notes: as for B1
B13: Hu2117HK-Mu22 (Fc fusion, name in Kabat numbering)
scFv: B1 scFv with G61P, N165V
notes: as for B1
B14: Hu2117HK-Mu23 (Fc fusion)
scFv: B1 scFv with G61P, G166A
notes: as for B1
B15: Hu2117HK-Mu24 (Fc fusion)
scFv: B1 scFv with G61P, G166I
notes: as for B1
B16: Hu2117HK-Mu25 (Fc fusion)
scFv: B1 scFv with G61P, G166S
notes: as for B1
B17: Hu2117HK-Mu27 (Fc fusion)
scFv: B1 scFv with G61P, G166R
notes: as for B1
B18: Hu2117HK-Mu28 (Fc fusion)
scFv: B1 scFv with G61P, G166T
notes: as for B1

What follows are binders tested against T1, recombinant human HER2 extracellular domain protein (human, UniProt P04626 23-652) (assay: BLI, Protein A capture).
T1 construct: range 23-652; Range is printed for the immunogen/panning protein; also called ErbB2; recombinant HER2 protein
B1 showed a Kd of 6.38 nM, a koff of 0.000468 s⁻¹ and a kon of 73400 M⁻¹ s⁻¹.
In the case of B2, the Kd is reported as 7.05 nM, the koff is reported as 0.000546 s⁻¹ and the kon is reported as 77400 M⁻¹ s⁻¹.
In the case of B3, the Kd is reported as 9.41 nM, the koff is reported as 0.000803 s⁻¹ and the kon is reported as 85400 M⁻¹ s⁻¹.
In the case of B4, the Kd is reported as 6.4 nM, the koff is reported as 0.000453 s⁻¹ and the kon is reported as 70800 M⁻¹ s⁻¹.
With B5 the Kd was 6.05 nM, the koff was 0.000484 s⁻¹ and the kon was 80100 M⁻¹ s⁻¹.
Binder B6 has a Kd of 7.16 nM, a koff of 0.000624 s⁻¹ and a kon of 87200 M⁻¹ s⁻¹.
B7 gave a Kd of 8.76 nM, a koff of 0.00051 s⁻¹ and a kon of 58200 M⁻¹ s⁻¹.
B8 gave a Kd of 14.9 nM, a koff of 0.000738 s⁻¹ and a kon of 49500 M⁻¹ s⁻¹.
Binder B9 has a Kd of 11.4 nM, a koff of 0.000483 s⁻¹ and a kon of 42600 M⁻¹ s⁻¹.
B10 gave a Kd of 13.9 nM, a koff of 0.000837 s⁻¹ and a kon of 60100 M⁻¹ s⁻¹.
B11 was tested, and the Kd was 13.3 nM, the koff was 0.000616 s⁻¹ and the kon was 46500 M⁻¹ s⁻¹.
Work on B12 yielded a Kd of 12 nM, a koff of 0.00056 s⁻¹ and a kon of 46800 M⁻¹ s⁻¹.
B13 showed a Kd of 13.4 nM, a koff of 0.00059 s⁻¹ and a kon of 43900 M⁻¹ s⁻¹.
B14 was tested, and the Kd was 6.67 nM, the koff was 0.000542 s⁻¹ and the kon was 81200 M⁻¹ s⁻¹.
Binder B15 has a Kd of 6.65 nM, a koff of 0.000423 s⁻¹ and a kon of 63700 M⁻¹ s⁻¹.
With B16 the Kd was 6.73 nM, the koff was 0.00056 s⁻¹ and the kon was 83100 M⁻¹ s⁻¹.
Binder B17 has a Kd of 7.38 nM, a koff of 0.000592 s⁻¹ and a kon of 80200 M⁻¹ s⁻¹.
B18 was tested, and the Kd was 7.15 nM, the koff was 0.000592 s⁻¹ and the kon was 82800 M⁻¹ s⁻¹.
